How the values were obtained:
[1] = molecular target: RON (Macrophage stimulating protein receptor), full length, on cells (human, UniProt Q04912 25-1400); assay: cell-based or functional assay
[2] = molecular target: T1, Mammalian expressed extracellular human RON protein (Gly25 to Thr957) with His-tag (human, UniProt Q04912 25-957); assay: KinExA, RON-HIS
T1 construct: Expressed in ExpiCHO cells, purified on nickel; Position of the His-tag is told inconsistently; Written as one chain; also called RON ECD; RON ECD antigen; not shown: His-tag
T1 sequence: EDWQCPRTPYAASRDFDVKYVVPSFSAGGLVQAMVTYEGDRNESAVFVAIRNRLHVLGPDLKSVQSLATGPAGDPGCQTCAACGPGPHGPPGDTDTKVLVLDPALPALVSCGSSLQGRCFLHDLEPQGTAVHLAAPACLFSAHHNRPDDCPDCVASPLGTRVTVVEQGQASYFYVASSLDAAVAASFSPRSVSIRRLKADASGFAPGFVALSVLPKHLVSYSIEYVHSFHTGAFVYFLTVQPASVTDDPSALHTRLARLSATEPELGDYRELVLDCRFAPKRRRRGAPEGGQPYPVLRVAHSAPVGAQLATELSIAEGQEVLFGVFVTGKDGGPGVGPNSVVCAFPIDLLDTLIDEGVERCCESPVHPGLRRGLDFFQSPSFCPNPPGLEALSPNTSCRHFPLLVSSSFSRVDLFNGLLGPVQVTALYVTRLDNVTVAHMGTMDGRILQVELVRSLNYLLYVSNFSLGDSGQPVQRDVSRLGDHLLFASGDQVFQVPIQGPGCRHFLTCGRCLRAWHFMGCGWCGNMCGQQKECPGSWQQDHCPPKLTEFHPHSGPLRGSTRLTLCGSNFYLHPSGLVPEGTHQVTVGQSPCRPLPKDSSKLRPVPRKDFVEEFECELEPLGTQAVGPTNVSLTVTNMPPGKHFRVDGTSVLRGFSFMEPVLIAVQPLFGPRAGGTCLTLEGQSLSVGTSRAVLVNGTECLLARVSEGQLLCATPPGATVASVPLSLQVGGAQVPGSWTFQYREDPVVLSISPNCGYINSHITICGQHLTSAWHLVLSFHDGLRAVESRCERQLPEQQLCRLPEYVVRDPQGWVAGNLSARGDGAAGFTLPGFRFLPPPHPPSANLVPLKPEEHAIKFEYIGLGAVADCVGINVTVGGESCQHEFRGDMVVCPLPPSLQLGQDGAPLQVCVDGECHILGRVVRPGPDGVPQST

[3] = molecular target: T1, Mammalian expressed extracellular human …; assay: KinExA, fixed antigen format, antibody titrated into fixed RON ECD-His
Description: This limitation of the SPR method for highly avid antibodies has been described previously and the use of kinetic exclusion assay has been proposed as a way to overcome this limitation allowing measurements in the sub nanomolar range. We employed the Kinetic Exclusion assay (KinEXa) method to measure the Kd values of all of the new antibodies using a fixed concentration of the recombinant mammalian expressed protein as the target antigen and a twelve-point dilution curve of each antibody. We dropped antibody 9F6, in this assay as it seemed less avid than the other antibodies in preliminary SPR binding assays. The remaining seven antibodies gave exactly accurate results in duplicate analysis (FIG. 6).
(§1) Mammalian produced recombinant extracellular His-tag RON protein was used for affinity measurements. Affinity determinations were carried out in the fixed antigen format. Antibodies were titrated as two-fold dilutions into a fixed concentration of RON antigen. RON protein was detected using mouse monoclonal to 6×His-Tag (Dylight@650, Thermo Fisher). All affinity measurements were carried out using the KinExa 4000 (Sapidyne Instruments).

[4] = molecular target: T1, Mammalian expressed extracellular human …; assay: KinExA, RON-HIS; 95% Confidence Level 14.92 pM to 49.11 pM
Protocol: as §1

[5] = molecular target: T1, Mammalian expressed extracellular human …; assay: KinExA, RON-HIS; 95% Confidence Level 2.52 x 106 to 6.93 x 106

IC50 of inhibition of MSP induced ERK phosphorylation (AlphaLISA SureFire p-ERK, T47D cells) [1]: 2.8 nM
koff [2]: 0.000121 s⁻¹
Kd [3]: 0.029 nM
Kd [4]: 0.0294 nM
kon [5]: 4.12e+06 M⁻¹ s⁻¹
B1: 10G1 (antibody, V domains shown)
VH: EVKLEQSGGGLVQPGGSRKLSCAASGFTFSSFGMHWVRQAPEKGLEWVAYISGGSGTFYYADTVKGRFTISRDNPKNTLFLQMTSLRSEDTAIYYCARSTTVLDYWGQGTTLTVSS
VL: DIVLTQTPSSMYAFLGERVTIICKASQDINNYLNWVQQKPGKAPKTLIYHADRLADGVPSRFSGSGSGQDYSLTISSLEYEDMGIYYCLQYDDFPPFTFGSGTKLEIK
notes: Mouse monoclonal antibody from a hybridoma; kappa light chain; also called Antibody 10G1; anti-RON antibody 10G1
